Test results taken from publication PMC4028264.

Columns and labels:
Test in all cases: native gel or EMSA
[1] = target: HIV-1 strain R2 gp140 fused to a modified GCN4 trimerization domain (HIV-1 strain R2 | not stated)
[2] = target: HIV-1 strain R2 gp140 with a 15 amino acid flexible linker between gp120 and the gp41 ectodomain, fu (HIV-1 strain R2 | not stated)
[3] = target: HIV-1 strain R2 soluble gp140 envelope glycoprotein (uncleaved) (HIV-1 strain R2)

Substance: HIV-1 strain R2 gp140 fused to a modified GCN4 trimerization domain (domain or fragment)
- stoichiometry N [1]: 3

Substance: HIV-1 strain R2 gp140 with a 15 amino acid flexible linker between gp120 and the gp41 ectodomain, fu (domain or fragment)
- stoichiometry N [2]: 3

Substance: HIV-1 strain R2 soluble gp140 envelope glycoprotein (uncleaved) (domain or fragment)
- percent dimer [3]: > 90%
- stoichiometry N [3]: 2
